± gives the uncertainty stated by the source.
B1: Syntaxin-binding protein 4, residues 493 to 538; numbered along this chain, Q6ZWJ1 (parent)
chain: LDMDCLPYGWEEAYTADGIKYFINHVTQTTSWIHPVMSVLNLSRSE
B2: POU domain, class 4, transcription factor 1, residues 266 to 347; numbered along this chain, Q01851 (parent)
chain: RELEAFAERFKQRRIKLGVTQADVGSALANLKIPGVGSLSQSTICRFESLTLSHNNMIALKPILQAWLEEAEGAQREKMNKP

Variants of: B1
Test: abundance fitness (aPCA) (normalised: wild type 0, dead -1); higher = more abundant; growth selection in yeast, the domain comes from the species named
Conditions: Homo sapiens

Row | Variant | abundance fitness
1 | M3E | 0.144 ± 0.088
2 | M3W | -0.692 ± 0.11
3 | M3I | -0.425 ± 0.11
4 | L1M | 0.148 ± 0.13
5 | L1R | -0.874 ± 0.5
6 | L1G | -0.525 ± 0.21
7 | L1S | 0.28 ± 0.13
8 | L1K | 0.331 ± 0.23
9 | L1Y | -0.198 ± 0.21
10 | L1H | -0.269 ± 0.33
11 | L1E | 0.068 ± 0.21
12 | L1N | -0.101 ± 0.39
13 | L1T | -0.004 ± 0.27
14 | L1W | -0.334 ± 0.15
15 | L1F | -0.163 ± 0.17
16 | D2N | -0.388 ± 0.094
17 | D2L | -0.424 ± 0.093
18 | D2G | -0.366 ± 0.082
19 | D2S | -0.478 ± 0.096
20 | D2F | -0.849 ± 0.13
21 | D2P | -0.985 ± 0.16
22 | D2V | -0.576 ± 0.086
23 | D2A | -0.445 ± 0.084
24 | D2Q | -0.48 ± 0.12

Row | Variant | abundance fitness
25 | D2I | -0.698 ± 0.16
26 | D2R | -0.603 ± 0.09
27 | D2E | -0.206 ± 0.097
28 | D2K | -0.269 ± 0.14
29 | D2T | -0.334 ± 0.12
30 | D2M | -0.334 ± 0.14
31 | D2C | -0.699 ± 0.12
32 | A13K | -0.534 ± 0.11
33 | A13C | -0.676 ± 0.12
34 | A13L | -0.742 ± 0.091
35 | A13V | -0.686 ± 0.084
36 | A13T | -0.527 ± 0.11
37 | A13R | -0.501 ± 0.08
38 | A13D | -1.11 ± 0.18
39 | A13P | -0.922 ± 0.11
40 | A13S | -0.5 ± 0.088
41 | A13N | -0.774 ± 0.14
42 | A13Q | -0.677 ± 0.13
43 | A13I | -0.998 ± 0.21
44 | A13W | -0.766 ± 0.11
45 | A13H | -1.01 ± 0.17
46 | A13G | -0.746 ± 0.081
47 | A13E | -0.923 ± 0.11
48 | A13F | -0.946 ± 0.19

Variants of: B2
Test: as above
Conditions: Homo sapiens

Row | Variant | abundance fitness
49 | Q75V | -0.025 ± 0.041
50 | Q75D | -0.045 ± 0.072
51 | Q75H | 0.041 ± 0.097
52 | S49G | -0.002 ± 0.029
53 | S49V | -0.654 ± 0.046
54 | R1D | 0.008 ± 0.066
55 | R1L | -0.084 ± 0.059
56 | P34N | -0.133 ± 0.063
57 | P34F | -0.097 ± 0.065
58 | P34A | 0 ± 0.029
59 | A74R | -0.008 ± 0.024
60 | A74L | 0.006 ± 0.026
61 | L28C | -0.042 ± 0.039
62 | N80Q | 0.091 ± 0.061
63 | N80L | -0.026 ± 0.039
64 | N80H | 0.019 ± 0.066
65 | V36L | 0.003 ± 0.12
66 | V36C | -0.225 ± 0.18
67 | R76Q | -0.003 ± 0.035
68 | N55K | -0.038 ± 0.074
69 | N55L | -0.016 ± 0.052
70 | L52K | -1.28 ± 0.27
71 | A59W | -0.198 ± 0.05
72 | A59F | 0 ± 0.095

Row | Variant | abundance fitness
73 | L68S | -0.497 ± 0.08
74 | A71F | -0.289 ± 0.13
75 | A71Y | -0.353 ± 0.17
76 | L17T | -0.779 ± 0.058
77 | L50N | -0.032 ± 0.04
78 | L50K | 0.029 ± 0.049
79 | L50M | 0.055 ± 0.045
80 | N30G | -0.009 ± 0.041
81 | N30M | -0.104 ± 0.09
82 | N30K | 0.113 ± 0.088
83 | G25S | 0.001 ± 0.047
84 | A22C | -0.098 ± 0.27
85 | K81T | 0.03 ± 0.098
86 | K81L | 0.043 ± 0.07
87 | M79P | 0.029 ± 0.033
88 | M79N | 0.023 ± 0.043
89 | T20S | -0.117 ± 0.19
90 | T20I | -0.725 ± 0.21
91 | A66W | -0.192 ± 0.031
92 | A66N | -0.017 ± 0.05
93 | E8H | -0.164 ± 0.22
94 | G18S | -0.241 ± 0.1
95 | G18C | -0.475 ± 0.32
96 | G18A | -0.268 ± 0.17

Row | Variant | abundance fitness
97 | F47R | -0.934 ± 0.12
98 | E4Q | -0.035 ± 0.059
99 | E4A | -0.071 ± 0.048
100 | E4S | -0.091 ± 0.046
101 | E4N | -0.086 ± 0.097
102 | G35W | -0.326 ± 0.28
103 | G35A | -0.397 ± 0.26
104 | I33T | -0.145 ± 0.039
105 | I33N | -0.219 ± 0.052
106 | Q41K | 0 ± 0.066
107 | L3T | -0.26 ± 0.057
108 | K16W | -0.177 ± 0.05
109 | K16F | -0.138 ± 0.039
110 | R46C | -0.117 ± 0.1
111 | R46P | -0.576 ± 0.18
112 | R46S | -0.009 ± 0.059
113 | R46V | -0.503 ± 0.071
114 | E48S | -0.979 ± 0.063
115 | T43A | -0.044 ± 0.051
116 | T43H | 0.063 ± 0.12
117 | E2C | -0.306 ± 0.046
118 | E2D | 0.023 ± 0.039
119 | E2I | -0.266 ± 0.062
120 | E2P | -0.437 ± 0.04

Row | Variant | abundance fitness
121 | K32L | -0.105 ± 0.064
122 | K32F | 0.031 ± 0.26
123 | Q21P | -0.045 ± 0.065
124 | Q12E | 0.015 ± 0.037
125 | K78L | -0.012 ± 0.069
126 | K78P | -0.048 ± 0.12
127 | K78A | 0.089 ± 0.064
128 | S38P | -0.112 ± 0.14
129 | S38L | -0.11 ± 0.11
130 | I58L | -0.031 ± 0.052
131 | I58T | 0.033 ± 0.081
132 | V24C | -0.326 ± 0.1
133 | S53R | -0.139 ± 0.04
134 | R9H | -0.003 ± 0.14
135 | I63L | -0.113 ± 0.061
136 | I63N | -0.17 ± 0.11
137 | I63S | -0.204 ± 0.068
138 | A7R | -0.594 ± 0.028
139 | K61S | -0.149 ± 0.047
140 | K61G | -0.305 ± 0.037
141 | K61A | -0.074 ± 0.043
142 | A29L | -0.092 ± 0.13
143 | A29K | 0.02 ± 0.14
144 | Q65G | -0.086 ± 0.024

Row | Variant | abundance fitness
145 | Q65L | -0.073 ± 0.026
146 | Q65N | -0.078 ± 0.044
147 | E72P | -0.348 ± 0.09
148 | E72K | -0.518 ± 0.11
149 | S42R | -0.006 ± 0.037
150 | F6V | -0.378 ± 0.026
151 | F6P | -0.951 ± 0.071
152 | V19M | 0.096 ± 0.067
153 | V19Y | -0.027 ± 0.086
154 | I44N | -0.516 ± 0.23
155 | A5P | -0.451 ± 0.1
156 | C45L | -0.073 ± 0.05
157 | C45K | 0.035 ± 0.058
158 | C45Y | -0.037 ± 0.1
159 | E77C | -0.088 ± 0.041
160 | E77I | -0.063 ± 0.065
161 | E77M | 0.021 ± 0.042
162 | G73Q | 0.043 ± 0.09
163 | G73V | 0.071 ± 0.049
164 | G73E | 0.125 ± 0.054
165 | T51K | 0.015 ± 0.044
166 | T51D | 0.034 ± 0.046
167 | S40G | -0.058 ± 0.035
